According to US20020160013A1 (RECEPTRON, published 2002):

T1: GLUT4 (rat, UniProt P19357 1-509)
T1 sequence (looked up): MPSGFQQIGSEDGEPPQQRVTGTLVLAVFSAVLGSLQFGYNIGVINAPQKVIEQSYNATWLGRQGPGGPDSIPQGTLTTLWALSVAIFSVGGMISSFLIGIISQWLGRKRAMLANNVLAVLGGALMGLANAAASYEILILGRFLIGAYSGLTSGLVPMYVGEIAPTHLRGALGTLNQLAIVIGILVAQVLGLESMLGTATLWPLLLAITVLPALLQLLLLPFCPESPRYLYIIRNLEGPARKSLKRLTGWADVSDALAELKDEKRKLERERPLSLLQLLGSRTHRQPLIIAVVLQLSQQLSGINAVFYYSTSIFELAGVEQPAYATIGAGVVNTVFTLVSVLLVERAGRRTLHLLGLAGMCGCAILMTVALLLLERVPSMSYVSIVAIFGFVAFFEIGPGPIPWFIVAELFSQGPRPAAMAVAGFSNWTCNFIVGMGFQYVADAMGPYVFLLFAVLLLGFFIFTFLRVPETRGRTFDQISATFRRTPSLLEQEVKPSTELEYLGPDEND


Assays:
Test in all cases: cell-based or functional assay
[1] = biological target: Leptin Receptor, long form (UniProt P48357)
Leptin Receptor, long form, sequence (P48357 22-1165): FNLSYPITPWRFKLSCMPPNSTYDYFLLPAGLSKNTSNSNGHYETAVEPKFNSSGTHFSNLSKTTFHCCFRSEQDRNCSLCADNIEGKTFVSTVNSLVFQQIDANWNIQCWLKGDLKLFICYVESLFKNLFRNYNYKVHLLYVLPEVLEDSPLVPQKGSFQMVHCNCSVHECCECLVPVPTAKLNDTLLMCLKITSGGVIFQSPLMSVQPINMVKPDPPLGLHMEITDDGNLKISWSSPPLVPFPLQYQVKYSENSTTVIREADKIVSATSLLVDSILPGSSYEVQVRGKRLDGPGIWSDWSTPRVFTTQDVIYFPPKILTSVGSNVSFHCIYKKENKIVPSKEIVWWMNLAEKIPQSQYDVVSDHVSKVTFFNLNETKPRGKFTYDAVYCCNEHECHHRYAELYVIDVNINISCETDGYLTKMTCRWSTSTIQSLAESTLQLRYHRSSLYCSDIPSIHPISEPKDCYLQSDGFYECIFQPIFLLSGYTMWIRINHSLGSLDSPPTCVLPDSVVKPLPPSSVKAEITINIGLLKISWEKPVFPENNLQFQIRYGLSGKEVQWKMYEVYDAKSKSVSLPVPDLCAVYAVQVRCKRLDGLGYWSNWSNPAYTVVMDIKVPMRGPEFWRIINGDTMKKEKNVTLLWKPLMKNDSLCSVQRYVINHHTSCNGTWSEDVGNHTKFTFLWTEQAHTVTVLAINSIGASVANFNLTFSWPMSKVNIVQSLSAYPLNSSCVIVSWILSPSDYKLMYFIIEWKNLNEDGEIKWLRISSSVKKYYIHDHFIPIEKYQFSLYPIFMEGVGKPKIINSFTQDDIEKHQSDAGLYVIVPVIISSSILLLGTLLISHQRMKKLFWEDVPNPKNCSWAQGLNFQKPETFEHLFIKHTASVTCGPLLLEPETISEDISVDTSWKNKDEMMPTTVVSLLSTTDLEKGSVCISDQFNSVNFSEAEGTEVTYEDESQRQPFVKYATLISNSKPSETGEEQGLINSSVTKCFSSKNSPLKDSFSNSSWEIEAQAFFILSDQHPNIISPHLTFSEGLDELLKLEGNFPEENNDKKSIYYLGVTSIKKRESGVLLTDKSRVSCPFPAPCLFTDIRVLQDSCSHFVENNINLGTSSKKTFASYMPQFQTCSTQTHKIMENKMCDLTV

[2] = biological target: T1, GLUT4
[3] = biological target: human insulin receptor (human, UniProt P06213 28-1382)
[4] = biological target: mutated form of the insulin receptor, deletion of residues 713 to 740 (human, UniProt P06213 28-1382)
[5] = biological target: Leptin Receptor, long form, P48357
Leptin Receptor, long form, P48357, sequence (P48357 22-1165): as above

Molecule | percent internalized receptor at 5 min with 10 µM peptide (125I-insulin, acid wash) [3] [%] | percent internalized receptor at 15 min with 10 µM peptide (125I-insulin, acid wash) [3] [%] | percent internalized receptor at 30 min with 10 µM peptide (125I-insulin, acid wash) [3] [%] | percent internalized receptor at 60 min with 10 µM peptide (125I-insulin, acid wash) [3] [%] | percent internalized receptor at 5 min with 10 µM peptide (125I-insulin, acid wash) [4] [%] | percent internalized receptor at 15 min with 10 µM peptide (125I-insulin, acid wash) [4] [%] | percent internalized receptor at 30 min with 10 µM peptide (125I-insulin, acid wash) [4] [%] | percent internalized receptor at 60 min with 10 µM peptide (125I-insulin, acid wash) [4] [%] | further results
Leptin (from UniProt P41159 22-167) (ligand) |  |  |  |  |  |  |  |  | activation (phosphorylation) of JAK2 with 1 ng/ml of OB alone, quantified western blot (arbitrary units) [1]: 2
TWLGRQGPEGPSSIPPGTLTTLW [GLUT4pep] |  |  |  |  |  |  |  |  | enhancement of glucose uptake in rat adipose cells, 10 nM insulin + GLUT4pep [2]: 24 fold
GNEQSFRVDLRTLLRYAGGGNEQSFRVDLRTLLRYA [DS-A85] | 5 | 9 | 14 | 17 | -1 | 0 | 2 | 1 | 
KTDSQILKELEESSFRKTFEDYLH [Insulin receptor derived peptide] | 6 | 2 | 6 | 2 | 5 | -2 | 0 | 2 | enhancement of glucose uptake in rat adipose cells, insulin + 10 µM pepIR [2]: 12 fold
KKENKIVPSKEIVWWMNLAEKIP [Leptin Receptor derived peptide] |  |  |  |  |  |  |  |  | activation (phosphorylation) of JAK2 with 1 ng/ml of OB and 30 µM LRp together, quantified western blot (arbitrary units) [5]: 16; activation (phosphorylation) of JAK2 with 30 µM LRp alone, quantified western blot (arbitrary units) [5]: 8
